Source: patent US20220160760A1

Molecular target: carcinoembryonic antigen (CEA) (UniProt P06731)
Assay: cell-based or functional assay

Sequence of UniProt P06731 (P06731 35-702 limits assumed): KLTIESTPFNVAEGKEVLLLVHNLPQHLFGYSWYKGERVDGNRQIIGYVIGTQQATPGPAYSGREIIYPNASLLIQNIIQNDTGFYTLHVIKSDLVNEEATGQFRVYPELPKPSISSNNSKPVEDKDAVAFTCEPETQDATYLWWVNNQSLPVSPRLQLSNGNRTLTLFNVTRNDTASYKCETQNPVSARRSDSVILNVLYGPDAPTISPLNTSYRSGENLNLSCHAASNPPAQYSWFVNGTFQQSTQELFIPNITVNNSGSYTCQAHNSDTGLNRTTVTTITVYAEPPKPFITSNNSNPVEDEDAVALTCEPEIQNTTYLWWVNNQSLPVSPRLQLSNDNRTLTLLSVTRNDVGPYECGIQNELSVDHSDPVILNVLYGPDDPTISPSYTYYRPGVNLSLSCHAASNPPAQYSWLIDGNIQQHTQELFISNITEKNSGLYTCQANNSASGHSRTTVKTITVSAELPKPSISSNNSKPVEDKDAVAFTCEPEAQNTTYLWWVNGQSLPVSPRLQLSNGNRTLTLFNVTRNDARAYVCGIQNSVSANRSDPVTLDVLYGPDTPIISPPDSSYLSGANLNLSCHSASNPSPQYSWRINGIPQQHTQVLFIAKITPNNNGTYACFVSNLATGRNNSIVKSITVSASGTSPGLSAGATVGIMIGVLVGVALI

Which IL-2 secretion by ELISA, T-cells mixed with LoVo-OKT3 cells, average of three donors (non-transduced cells 0.80 ng/ml) does the source give for “MFE23 CoStAR (MFE23.scFv fused to full length human CD28) (receptor)” here?
Its IL-2 secretion by ELISA, T-cells mixed with LoVo-OKT3 cells, average of three donors (non-transduced cells 0.80 ng/ml) is 5 ng/mL.
